In paper PMC3306459 (Journal of Inorganic Biochemistry, 2011):
Substitutions are numbered along the chain they refer to. Numbers in names are those of the source.

B1: wild type Δ65iNOSoxy domain (oxygenase domain of inducible nitric oxide synthase, amino acid 66–498) (domain or fragment, mouse, UniProt P29477 66-498, looked up)
chain: LDKLHVTSTRPQYVRIKNWGSGEILHDTLHHKATSDFTCKSKSCLGSIMNPKSLTRGPRDKPTPLEELLPHAIEFINQYYGSFKEAKIEEHLARLEAVTKEIETTGTYQLTLDELIFATKMAWRNAPRCIGRIQWSNLQVFDARNCSTAQEMFQHICRHILYATNNGNIRSAITVFPQRSDGKHDFRLWNSQLIRYAGYQMPDGTIRGDAATLEFTQLCIDLGWKPRYGRFDVLPLVLQADGQDPEVFEIPPDLVLEVTMEHPKYEWFQELGLKWYALPAVANMLLEVGGLEFPACPFNGWYMGTEIGVRDFCDTQRYNILEEVGRRMGLETHTLASLWKDRAVTEINVAVLHSFQKQNVTIMDHHTASESFMKHMQNEYRARGGCPADWIWLVPPVSGSITPVFHQEMLNYVLSPFYYYQIEPWKTHIWQNE
B2: R375K Δ65iNOSoxy (amino acid 66–498) (domain or fragment, mouse, UniProt P29477 66-498, looked up)
chain: B1 chain with R310K
B3: R375D Δ65iNOSoxy (amino acid 66–498) (domain or fragment, mouse, UniProt P29477 66-498, looked up)
chain: B1 chain with R310D
B4: R375N Δ65iNOSoxy (amino acid 66–498) (domain or fragment, mouse, UniProt P29477 66-498, looked up)
chain: B1 chain with R310N

target: T1, G450A iNOS full length protein (mouse, UniProt P29477 1-1144, G450A); test: cell-based or functional assay
T1 sequence (looked up): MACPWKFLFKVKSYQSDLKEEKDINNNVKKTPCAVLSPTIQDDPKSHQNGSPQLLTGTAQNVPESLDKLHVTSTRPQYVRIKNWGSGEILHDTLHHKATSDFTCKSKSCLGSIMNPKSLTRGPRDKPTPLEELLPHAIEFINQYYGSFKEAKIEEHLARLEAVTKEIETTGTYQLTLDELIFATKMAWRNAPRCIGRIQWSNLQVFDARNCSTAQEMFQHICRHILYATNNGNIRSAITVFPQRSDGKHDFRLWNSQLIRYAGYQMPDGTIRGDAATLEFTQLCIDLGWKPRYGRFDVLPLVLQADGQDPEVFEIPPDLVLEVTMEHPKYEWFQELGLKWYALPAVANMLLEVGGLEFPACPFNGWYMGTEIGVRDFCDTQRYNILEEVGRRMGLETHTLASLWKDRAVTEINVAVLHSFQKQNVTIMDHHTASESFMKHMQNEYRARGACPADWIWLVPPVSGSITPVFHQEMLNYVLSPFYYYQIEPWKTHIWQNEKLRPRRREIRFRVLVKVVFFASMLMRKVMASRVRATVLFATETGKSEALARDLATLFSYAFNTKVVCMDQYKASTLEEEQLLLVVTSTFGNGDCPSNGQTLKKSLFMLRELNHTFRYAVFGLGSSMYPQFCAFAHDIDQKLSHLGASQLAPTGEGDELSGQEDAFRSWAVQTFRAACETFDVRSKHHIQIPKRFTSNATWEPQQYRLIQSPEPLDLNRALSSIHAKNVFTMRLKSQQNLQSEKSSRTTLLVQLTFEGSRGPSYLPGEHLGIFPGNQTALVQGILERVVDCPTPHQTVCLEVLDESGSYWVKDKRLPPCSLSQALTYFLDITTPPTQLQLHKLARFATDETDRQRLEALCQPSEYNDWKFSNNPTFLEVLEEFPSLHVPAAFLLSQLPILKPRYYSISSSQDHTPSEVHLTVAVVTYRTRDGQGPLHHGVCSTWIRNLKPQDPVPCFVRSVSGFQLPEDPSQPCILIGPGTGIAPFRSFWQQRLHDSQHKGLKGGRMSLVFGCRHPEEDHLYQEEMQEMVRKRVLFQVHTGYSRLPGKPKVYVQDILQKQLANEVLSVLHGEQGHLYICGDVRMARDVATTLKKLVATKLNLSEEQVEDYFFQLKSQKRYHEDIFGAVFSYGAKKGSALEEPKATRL

Binder | NO2^- production of the heterodimer, Griess assay [µM] | NO synthesis (min^-1) of the heterodimer, oxyhemoglobin assay [min⁻¹]
B1 | 30.3 | 51.8
B2 | 7.8 | 17.6
B3 | 1.8 | 1.7
B4 | 6.3 | 8.6

Target: the molecule itself
Test: SEC

Binder | dimer content [%]
B2 | 100
B3 | 30
B4 | 38
